Like-named read-outs stand apart in the source and are kept apart here.
T1: cynomolgus monkey BDCA-2 on cells (Jurkat-cynoBDCA-2 cells; cynomolgus monkey pDCs) (cynomolgus monkey, UniProt A0A2K5UWP4 1-212)
T1 construct: whole, on cells
T1 sequence: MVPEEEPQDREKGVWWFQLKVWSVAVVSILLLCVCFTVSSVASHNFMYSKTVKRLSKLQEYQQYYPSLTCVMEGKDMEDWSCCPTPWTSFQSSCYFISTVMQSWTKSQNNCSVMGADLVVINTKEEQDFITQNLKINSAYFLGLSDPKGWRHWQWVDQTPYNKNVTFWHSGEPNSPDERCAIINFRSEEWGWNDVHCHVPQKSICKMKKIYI

T2: human BDCA-2 on cells (Jurkat-hBDCA-2 cells; human pDCs; human PBMCs) (human, UniProt Q8WTT0 1-213)
T2 construct: whole, on cells; also called CD303; CLEC4C
T2 sequence (looked up): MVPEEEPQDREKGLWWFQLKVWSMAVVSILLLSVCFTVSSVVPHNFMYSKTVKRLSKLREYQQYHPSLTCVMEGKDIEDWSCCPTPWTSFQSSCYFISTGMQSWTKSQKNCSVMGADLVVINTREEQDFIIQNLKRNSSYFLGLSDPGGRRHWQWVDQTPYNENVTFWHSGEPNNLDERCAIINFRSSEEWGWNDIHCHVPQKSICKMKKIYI

T3: cynomolgus monkey BDCA-2 protein (acro, CLC-C52H4) (cynomolgus monkey, UniProt A0A2K5UWP4 45-212)
T3 construct: Bought soluble protein; also called cyno BDCA-2
T3 sequence: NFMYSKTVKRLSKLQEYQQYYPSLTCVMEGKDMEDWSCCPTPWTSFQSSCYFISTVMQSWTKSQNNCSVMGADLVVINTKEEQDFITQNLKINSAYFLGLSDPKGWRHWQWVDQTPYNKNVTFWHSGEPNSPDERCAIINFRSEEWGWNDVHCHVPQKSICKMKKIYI

T4: Human BDCA-2 protein (soluble, Octet analyte) (human, UniProt Q8WTT0 45-213, limits assumed)
T4 construct: Soluble protein used as analyte in BLI
T4 sequence (looked up): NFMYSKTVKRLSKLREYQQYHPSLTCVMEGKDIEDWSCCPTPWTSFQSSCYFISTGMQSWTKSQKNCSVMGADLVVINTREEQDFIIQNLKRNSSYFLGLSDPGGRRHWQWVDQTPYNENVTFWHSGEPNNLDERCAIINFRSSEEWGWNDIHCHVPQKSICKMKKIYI

T5: human CLEC4A (human, UniProt Q9UMR7 70-237, limits assumed)
T5 sequence (looked up): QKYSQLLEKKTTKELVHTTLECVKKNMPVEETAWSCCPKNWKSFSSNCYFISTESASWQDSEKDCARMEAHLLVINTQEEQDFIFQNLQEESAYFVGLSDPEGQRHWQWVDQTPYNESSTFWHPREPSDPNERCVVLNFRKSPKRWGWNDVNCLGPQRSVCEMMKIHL

T6: human CLEC6A (human, UniProt Q6EIG7 42-209, limits assumed)
T6 sequence (looked up): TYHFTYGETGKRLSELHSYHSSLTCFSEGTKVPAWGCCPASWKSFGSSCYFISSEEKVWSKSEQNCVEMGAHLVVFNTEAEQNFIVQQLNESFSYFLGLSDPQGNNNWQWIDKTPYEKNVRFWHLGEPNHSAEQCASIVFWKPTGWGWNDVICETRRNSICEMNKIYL

T7: human CLEC4D (human, UniProt Q8WXI8 39-215, limits assumed)
T7 sequence (looked up): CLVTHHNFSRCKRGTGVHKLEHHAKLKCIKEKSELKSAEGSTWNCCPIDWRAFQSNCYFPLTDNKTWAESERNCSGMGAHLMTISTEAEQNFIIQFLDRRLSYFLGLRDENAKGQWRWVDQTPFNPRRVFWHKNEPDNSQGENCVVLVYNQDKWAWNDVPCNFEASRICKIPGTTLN

T8: human CLEC4E (human, UniProt Q9ULY5 41-219, limits assumed)
T8 sequence (looked up): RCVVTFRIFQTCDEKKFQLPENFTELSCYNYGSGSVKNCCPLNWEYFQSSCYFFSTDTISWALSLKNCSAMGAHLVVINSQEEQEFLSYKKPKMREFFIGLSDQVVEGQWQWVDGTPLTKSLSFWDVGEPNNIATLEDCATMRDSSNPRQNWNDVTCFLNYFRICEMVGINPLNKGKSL

B1: 164C11B8 (murine hybridoma monoclonal antibody) (antibody, V domains shown)
VH: DVILVESGGGLVKPGGSLKLSCAASGITFSTYTMSWLRQTPEKRLEWVATINSGGDNTYYPDSVKGRFTISRDNAKNNLYLQMSSLKSEDTALYYCATYRPYYYGSVLDYWGQGTTLTVSS
VL: DIVLTQSPASLAVSLGQRATISCKASQSVDYDGNSYVNWYQQKPGQPPKLLIYGASNLESGIPDRFSGSGSGTDFTLNIHPVEEEDGATYYCQQSDEDPWTFGGGTKLEIR
notes: Mouse antibody from hybridoma; also called hybridoma 164C11B8; hybridoma antibody 164C11B8
B2: 17G6A2_hzH1L7_hIgG1 (antibody)
heavy: not shown
light: DIVLTQSPASLAVSPGQRATITCRASESVSFHGTHLMHWYQQKPGQPPKLLIYAASNLESGVPARFSGSGSETDFTLTINPVEAEDTANYYCQQSIEDPPTFGGGTKVEIKRTVAAPSVFIFPPSDEQLKSGTASVVCLLNNFYPREAKVQWKVDNALQSGNSQESVTEQDSKDSTYSLSSTLTLSKADYEKHKVYACEVTHQGLSSPVTKSFNRGEC
notes: Humanized, human IgG1/kappa (hzVH01 + hzVL07)
B3: 17G6A2_hzH2L6_hIgG1 (antibody, V domains shown)
VH: EVQLVESGGGLVKPGGSLRLSCAASGFTFSSYGMSWVRQAPGKGLEWVATISSGDSYTYYPDSVKGRFTISRDNAKNSLYLQMNSLRAEDTAVYYCARQLYYSYGYYFDYWGQGTTVTVSS
VL: DIVLTQSPASLAVSPGQRATITCRASESVSFHGTHLMHWYQQKPGQPPKLLIYAASNLESGVPARFSGSGSGTDFTLTINPVEANDAANYYCQQSIEDPPTFGGGTKVEIKR
notes: Humanized, human IgG1/kappa (hzVH02 + hzVL06)
B4: 17G6A2_hzH2L8_hIgG1 (antibody, V domains shown)
VH: EVQLVESGGGLVKPGGSLRLSCAASGFTFSSYGMSWVRQAPGKGLEWVATISSGDSYTYYPDSVKGRFTISRDNAKNSLYLQMNSLRAEDTAVYYCARQLYYSYGYYFDYWGQGTTVTVSS
VL: DIVLTQSPASLAVSPGQRATITCRASESVSFHGTHLMHWYQQKPGQPPKLLIYAASNLESGVPARFSGSGSETDFTLTINPVEANDAANYYCQQSIEDPPTFGGGTKVEIKR
notes: Humanized, human IgG1/kappa (hzVH02 + hzVL08)
B5: 17G6A2_hzH2L7_hIgG1 (antibody, V domains shown)
VH: EVQLVESGGGLVKPGGSLRLSCAASGFTFSSYGMSWVRQAPGKGLEWVATISSGDSYTYYPDSVKGRFTISRDNAKNSLYLQMNSLRAEDTAVYYCARQLYYSYGYYFDYWGQGTTVTVSS
VL: DIVLTQSPASLAVSPGQRATITCRASESVSFHGTHLMHWYQQKPGQPPKLLIYAASNLESGVPARFSGSGSETDFTLTINPVEAEDTANYYCQQSIEDPPTFGGGTKVEIKR
notes: Humanized, human IgG1/kappa (hzVH02 + hzVL07)
B6: 17G6A2 (murine hybridoma monoclonal antibody) (antibody, V domains shown)
VH: EVQLVESGGDLVKPGGSLKLSCAASGFTFSSYGMSWVRQTPDKRLEWVATISSGDSYTYYPDSVKGRFTISRDNAKNTLYLQMSSLKSEDTAMYYCARQLYYSYGYYFDYWGQGTTLTVSS
VL: DIVLTQSPASLAVSLGQRATISCRASESVSFHGTHLMHWYQQKPGQPPKLLIYAASNLESGVPARFSGSGSETDFTLNIHPVEEEDAATYFCQQSIEDPPTFGGGTKLEIK
notes: also called hybridoma 17G6A2; hybridoma antibody 17G6A2

Key:
[1] = target: T1, cynomolgus monkey BDCA-2 on cells …; experiment: flow cytometry on Jurkat-cynoBDCA-2 cells
[2] = target: T2, human BDCA-2 on cells (Jurkat-hBDCA-2 …); experiment: flow cytometry on Jurkat-hBDCA-2 cells
[3] = target: T2, human BDCA-2 on cells (Jurkat-hBDCA-2 …); experiment: cell-based or functional assay
[4] = target: T3, cynomolgus monkey BDCA-2 protein (acro, …); experiment: BLI (Octet Red96e), antibody on anti-human IgG sensor, cynomolgus monkey BDCA-2 protein in solution
[5] = target: T1, cynomolgus monkey BDCA-2 on cells …; experiment: flow cytometry on Jurkat-cynoBDCA-2 cells; remark: listed apart in the source
[6] = target: T2, human BDCA-2 on cells (Jurkat-hBDCA-2 …); experiment: flow cytometry on Jurkat-hBDCA-2 cells; remark: listed apart in the source
[7] = target: T4, Human BDCA-2 protein (soluble, Octet …); experiment: BLI (Octet Red96e), antibody on anti-human IgG sensor, human BDCA-2 protein in solution
[8] = target: T2, human BDCA-2 on cells (Jurkat-hBDCA-2 …); experiment: cell-based or functional assay; remark: listed apart in the source
[9] = target: human FcγRIIIa (158V) on Jurkat-human FcγRIIIa (158V)-NFAT cells (human, UniProt P08637 17-254); experiment: cell-based or functional assay
[10] = target: T2, human BDCA-2 on cells (Jurkat-hBDCA-2 …); experiment: cell-based or functional assay; remark: listed apart in the source
[11] = target: T5, human CLEC4A; experiment: ELISA, coated protein 1 µg/ml
[12] = target: T6, human CLEC6A; experiment: ELISA, coated protein 1 µg/ml
[13] = target: T7, human CLEC4D; experiment: ELISA, coated protein 1 µg/ml
[14] = target: T8, human CLEC4E; experiment: ELISA, coated protein 1 µg/ml
[15] = target: T2, human BDCA-2 on cells (Jurkat-hBDCA-2 …); experiment: cell-based or functional assay; remark: listed apart in the source

Chain of human FcγRIIIa (158V) on Jurkat-human FcγRIIIa (158V)-NFAT cells (P08637 17-254 F176V): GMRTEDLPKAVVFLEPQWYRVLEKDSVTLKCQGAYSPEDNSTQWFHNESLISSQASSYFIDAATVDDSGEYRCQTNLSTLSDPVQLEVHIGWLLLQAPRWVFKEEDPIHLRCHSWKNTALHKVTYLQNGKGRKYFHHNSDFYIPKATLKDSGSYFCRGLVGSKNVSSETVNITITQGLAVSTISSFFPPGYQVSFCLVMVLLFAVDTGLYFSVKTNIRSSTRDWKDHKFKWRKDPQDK

| Binder | EC50 [1] | EC50 [2] | EC50, inhibition of CpGA-induced type I interferon (IFNα) production in human PBMC cells [3] | Kd [4] | koff [4] | kon [4] | EC50 [5] | EC50 [6] | Kd [7] | koff [7] | kon [7] | EC50, inhibition of immune complex-induced type I interferon (IFNα) production by human pDC cells [8] | EC50, activation of Jurkat-human FcγR IIIa (158V)-NFAT cell line with Jurkat-hBDCA-2 target cells [9] | EC50, inhibition of CpGA-induced type I interferon (IFNα) production in human PBMC cells [10] | binding result [11] | binding result [12] | binding result [13] | binding result [14] | EC50, inhibition of CpGA-induced type I interferon (IFNα) production in human PBMC cells [15] |
| --- | --- | --- | --- | --- | --- | --- | --- | --- | --- | --- | --- | --- | --- | --- | --- | --- | --- | --- | --- |
| B1 | 0.233 µg/mL | 0.189 µg/mL | 0.002 µg/mL |  |  |  |  |  |  |  |  |  |  |  |  |  |  |  |  |
| B2 |  |  |  | 4.8 nM | 0.00064 s⁻¹ | 130000 M⁻¹ s⁻¹ | 0.0944 µg/mL | 0.0595 µg/mL | 2.9 nM | 0.000523 s⁻¹ | 179000 M⁻¹ s⁻¹ | 1 ng/mL | 0.005 µg/mL | 0.0011 µg/mL | no binding (tested: 10 µg/ml) | no binding (tested: 10 µg/ml) | no binding (tested: 10 µg/ml) | no binding (tested: 10 µg/ml) |  |
| B3 |  |  |  |  |  |  | 0.106 µg/mL | 0.0701 µg/mL | 3 nM | 0.000309 s⁻¹ | 101000 M⁻¹ s⁻¹ |  |  | 0.0017 µg/mL | no binding (tested: 10 µg/ml) | no binding (tested: 10 µg/ml) | no binding (tested: 10 µg/ml) | no binding (tested: 10 µg/ml) |  |
| B4 |  |  |  |  |  |  | 0.0383 µg/mL | 0.0222 µg/mL | 1.7 nM | 0.000261 s⁻¹ | 154000 M⁻¹ s⁻¹ |  |  | 0.0011 µg/mL | no binding (tested: 10 µg/ml) | no binding (tested: 10 µg/ml) | no binding (tested: 10 µg/ml) | no binding (tested: 10 µg/ml) |  |
| B5 |  |  |  |  |  |  | 0.0988 µg/mL | 0.0608 µg/mL | 1.8 nM | 0.000311 s⁻¹ | 174000 M⁻¹ s⁻¹ |  |  | 0.0011 µg/mL | no binding (tested: 10 µg/ml) | no binding (tested: 10 µg/ml) | no binding (tested: 10 µg/ml) | no binding (tested: 10 µg/ml) |  |
| B6 | 0.107 µg/mL | 0.0968 µg/mL |  |  |  |  |  |  |  |  |  |  |  |  |  |  |  |  | 0.0542 µg/mL |

Source: patent EP4775675A1 (Shanghai Hongcheng Biopharmaceutical Co., Ltd., dated 2026)
